Consider three molecules from doi:10.1101/2022.10.11.511834 (bioRxiv, 2022).

The target in test [1] is ubiquitin (UniProt P0CG48 1-76). The test can be described thus: crystal structure.
The target of test [2] is M1-linked di-Ub (UniProt P0CG48). The test can be described thus: ITC. (In general: Isothermal titration calorimetry measures the heat released or taken up as one component is titrated into another.)

Residue numbers refer to the chain shown, from its start. In names and notes the source's numbering stands.

A word on the Kd: it is the concentration at which binding is half-saturated. The low end stands for tighter binding, the high end for weaker binding.

B1: RNF216 (511-784, C688A, pSer719) (domain or fragment)
chain: QLIECRCCYGEFPFEELTQCADAHLFCKECLIRYAQEAVFGSGKLELSCMEGSCTCSFPTSELEKVLPQTILYKYYERKAEEEVAAAYADELVRCPSCSFPALLDSDVKRFSCPNPHCRKETCRKCQGLWKEHNGLTCEELAEKDDIKYRTSIEEKMTAARIRKCHKCGTGLIKSEGANRMSCRCGAQMCYLCRVSINGYDHFCQHPRSPGAPCQECSRCSLWTDPTEDDEKLIEEIQKEAEEEQKRKNGENTFKRIGPPLEKPVEKVQRVEAL
modifications: phosphoserine at 719
Turning to B1, in test [1], the binding result was “binds”.

B2: HOIL-1 233-510 (C460A) (domain or fragment)
chain: DEEERARLAGEEEALRQYQQRKQQQQEGNYLQHVQLDQRSLVLNTEPAECPVCYSVLAPGEAVVLRECLHTFCRECLQGTIRNSQEAEVSCPFIDNTYSCSGKLLEREIKALLTPEDYQRFLDLGISIAENRSAFSYHCKTPDCKGWCFFEDDVNEFTCPVCFHVNCLLCKAIHEQMNCKEYQEDLALRAQNDVAARQTTEMLKVMLQQGEAMRCPQCQIVVQKKDGADWIRCTVCHTEICWVTKGPRWGPGGPGDTSGGCRCRVNGIPCHPSCQNCH
B2: the binding result in test [1] is on record as “binds”.

B3: HOIL-1 233-510 (helix-RBR), wild type (domain or fragment)
chain: B2 chain with A228C
The molecule B3 gave a Kd in test [2] of roughly 50 µM.
